In experiment [1] the target is recombinant PCNA (proliferating cell nuclear antigen) (human) (UniProt P12004). Put plainly: SPR. Background: In SPR one partner is held on a chip, and binding of the other changes the refractive index at the surface.
Experiment [2] addresses recombinant PCNA (proliferating cell nuclear antigen) (human, UniProt P12004 1-261). Put plainly: SPR.

One may read the Kd as the concentration at which binding is half-saturated. Turning to “recombinant human Rac2 (from UniProt P15153 1-192) (natural protein; other documents disagree on this pair)”, in experiment [1], the Kd came to 3.3 µM; the k (backward) (two-state model, second step) stood at 0.00066 s⁻¹; the k (forward) (two-state model, second step) stood at 0.0057 s⁻¹; the ka1 (two-state model, first step) was 541 M⁻¹ s⁻¹. Further, the kd1 (two-state model, first step) in experiment [1] came to 0.017 s⁻¹.

B1: p47phox PX domain (truncated p47phox, residues 2–132) (domain or fragment)
chain: GDTFIRHIALLGFEKRFVPSQHYVYMFLVKWQDLSEKVVYRRFTEIYEFHKTLKEMFPIEAGAINPENRIIPHLPAPKWFDGQRAAENRQGTLTEYCSTLMSLPTKISRCPHLLDFFKVRPDDLKLPTDNQ
For orientation: kon means a measure of how fast the partners come together. As to B1, in experiment [2], the Kd came to 33 µM and the kon came to 85.2 M⁻¹ s⁻¹.
